Legend:
[1] = target: T1, Recombinant human renalase-1 expressed and secreted by pCDNA3-renalase-1-transfected 293T cells (human, UniProt Q5VYX0 18-342, limits assumed); experiment: Western blot; lane 293 s/n taken as supernatant of renalase-expressing 293 cells, the text does not explain the lane
T1 construct: whole renalase-1 entry named; Present in cell culture supernatant; also called mammalian-expressed recombinant human renalase

[2] = target: T1, Recombinant human renalase-1 expressed …; experiment: Immunoprecipitation from 293T supernatant with Protein G Sepharose, Western blot with biotinylated Ren 28-4
Procedure: All samples were incubated for 2 hours at 4° C. on a shaker. Immunoprecipitates were then washed 3 times with 1 mL RIPA buffer. 50 ul SDS-PAGE sample buffer (Fermentas) was added directly to Protein G-antibody immunoprecipitates and samples were heated to 95° C. for 5 minutes before running on SDS-PAGE. Actigel-antibody immunoprecipitates were washed a further 2 times in PBS prior to addition of 50 ul 0.1 M Glycine, pH 2.5. Samples were then agitated at room temperature for 10 minutes. Eluted proteins were recovered after centrifugation and resolved by SDS-PAGE. In all experiments 20 μL immunoprecipitate input material and 0.5 ng recombinant renalase positive control (RV11) were also loaded onto the gel.
In the example where a Protein G-mediated immunoprecipitation was used the western primary antibody was biotinylated-Ren 28-4 followed with a neutravidin-HRP secondary probe. In all cases where no immunoprecipitating antibody was added, no renalase was detected on the Western blot. All of the 1D and 1F antibodies (monoclonal and polyclonal) were able to immunoprecipitate bacterially- or mammalian-expressed recombinant human renalase.

[3] = target: T2, RPC1 reference standard peptide; experiment: standard curve in the sandwich ELISA with m42-RNLS capture and electro-chemiluminescence detection
T2 construct: Synthetic: m42 peptide antigen linked to the m28 peptide antigen
T2 sequence (peptide, as listed by the source): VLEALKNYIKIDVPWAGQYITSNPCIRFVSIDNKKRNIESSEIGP
Procedure: (§1) In this example, human plasma samples were pretreated as follows: To 40 μL of plasma, 20 μL of 1N Citric acid was added and the samples were incubated on a shaker for 15 min at RT. The reaction solution was neutralized by adding 40 μL of 1M Na₂HPO₄. The samples were then stored on ice and further diluted with Diluent 100 to obtain readings in linear range. Assay protocol: Renalase levels in plasma was measured using the prototype assay on the Mesoscale platform (Meso Scale diagnostics, Gaithersburg, Md., USA) which employs proprietary electro-chemiluminescence detection methods combined with patterned arrays. Standard 96-well assay plate from Mesoscale Diagnostics were coated with 40 μL of Ren 1F 42-7 (m42-RNLS) capture antibody (2 μg/mL) and incubated for 2 hours on a shaker at room temperature. Following this, 150 μL of 3% Blocker A was added and the plate incubated on a shaker for 1 hour at room temperature. The plate was then washed with 150 μL of PBST (3 times); diluted acid activated samples and calibrator was added and the plate incubated for 2 hrs at RT on a shaker. […] The plate was washed and 2× read buffer was added and the plate imaged on SQ120 (Meso Scale Discovery). The raw data was analyzed using the Discovery Workbench software. […]

[4] = target: T3, RPC2 reference standard peptide; experiment: as above
T3 construct: Synthetic: m42 peptide antigen linked to the m28 peptide antigen
T3 sequence (peptide, as listed by the source): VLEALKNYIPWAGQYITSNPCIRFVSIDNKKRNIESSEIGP
Procedure: as §1

T1 sequence (Q5VYX0 18-342 limits assumed): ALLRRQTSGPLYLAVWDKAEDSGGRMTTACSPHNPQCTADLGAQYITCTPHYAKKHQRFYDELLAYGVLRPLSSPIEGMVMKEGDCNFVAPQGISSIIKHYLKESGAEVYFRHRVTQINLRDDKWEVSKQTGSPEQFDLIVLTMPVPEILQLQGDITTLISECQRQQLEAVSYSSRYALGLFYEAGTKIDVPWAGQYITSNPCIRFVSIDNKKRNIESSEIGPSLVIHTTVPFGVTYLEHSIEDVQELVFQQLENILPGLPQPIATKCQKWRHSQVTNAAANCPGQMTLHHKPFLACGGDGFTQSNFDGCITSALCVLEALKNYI

Binder | binding result [1] | binding result [2] | binding result [3] | binding result [4]
anti-1D epitope monoclonal antibody 1D-28-4 (antibody, V domains shown, Rabbit monoclonal from hybridoma, purified on Protein A. Used biotinylated in some assays; also called Ren 1D 28-4; Ren1D 28-4) VH: QSVEESGGRLVTPGTPLTLTCTVSGFSLSSFAVGWVRQAPGKGLEYIGIISSVGITRYASWAAGRFTISKTSTTVDLKITSPTTEDTATYFCARYGYSGDVNRLDLWGQGTLVTVSS VL: AQVLTQTASPVSAAVGGTVTINCQASQSVYDNNNLAWYQQKPGQPPKQLIYGASTLASGVSSRFKGSGSGTQFTLTISGVQCDDAATYYCLGEFSCSSADCFAFGGGTEVVVKG | binds |  |  | 
anti-1D epitope monoclonal antibody 1D-37-10 (antibody, V domains shown, Rabbit monoclonal; also called Ren 1D 37-10) VH: QSVEESGGRLVTPGGSLTLTCTVSGFSLSDYAIIWVRQAPGKGLEYIAIIGSSGDTFYATWAKGRFTISKTSTTVDLKMTSLTAADTATYFCAPRYAGTTDYHDAFDPWGPGTLVTVSS VL: EVVMTQTPASMEAPMGGTVTIKCQASQNIYNYLSWYQQKPGQPPKLLVYKASTLTSGVPSRFKGSGSGTQFTLTISDLECADAATYYCQINYSIYNHYNIIFGGGTEVVVKG | binds |  |  | 
anti-1F epitope monoclonal antibody 1F-26-1 (antibody, V domains shown, Rabbit monoclonal; Used biotinylated as detection antibody in the sandwich ELISAs; also called Ren 1F 26-1) VH: QSVKESEGGLFKPTDTLTLTCTVSGFSLSSYGVTWVRQAPGNGLEWIGLIGDRGTTFYASWAKSRSTITRNTNLNTVTLKMTRLTAADTATYFCARGSGYGARIWGPGTLVTVSS VL: AQVLTQTPSPVSAAVGGTVTINCQSSQSVYKNNYLAWYQQKPGQPPKLLIYETSKLASGVPPRFSGSGSGTQFTLTISSVQCDDAATYYCQGGYSGVDFMAFGGGTEVVVKG |  | binds |  | 
anti-1F epitope monoclonal antibody 1F-42-7 (antibody, V domains shown, Rabbit monoclonal; also called Ren 1F 42-7; m42-RNLS) VH: QSVKESEGGLFKPTDTLTLTCTVSGFSLTTYGVTWVRQAPGNGLEWIGLIGDRGTTYYASWVNGRSTITRNTNLNTVTLKMTRLTAADTATYFCARGSGYGARIWGPGTLVTVAS VL: AQVLTQTPSPMSAALGGTVTINCQSSQTVYNNNYLSWYQQKPGQPPKLLIYETSKLSSGVPPRFSGSGSGTQFTLTISSVQCDDAATYYCQGGYSGVDFMAFGGGTEVVVKG |  | binds | binds | binds

Reference: patent US20200340031A1 (YALE UNIVERSITY, published 2020)
